Test in all cases: Crosslinking/co-immunoprecipitation/mass spectrometry (TMT quantitative proteomics) to identify irisin receptors
Holding throughout (format): binding

In assay [1] the target is T1, MLO-Y4 cell surface proteins (Mus musculus, UniProt Q9Z138).
T1 construct: endogenous in cells; host or cells: MLO-Y4
The settings on record: co-precipitated protein Ror2 (ROR2_MOUSE). The gist of the method: (§1)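 Mouse MLO-Y4 cells were switched to serum-free FreeStyle medium for 4 h, chilled, then exposed to 10 nM His-tagged irisin (or adipsin as control) for 20 min. Cells were crosslinked with 1.5 mM DTSSP (30 min, ice), and bound proteins were pulled down on Ni-NTA and eluted with 250 mM imidazole. Eluates were separated by SDS-PAGE, trypsin-digested in gel, TMT 6-plex labelled and quantified by MS3-based LC-MS/MS on an Orbitrap Fusion Lumos.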

Assay [2] has as its target T2, MLO-Y4 cell surface proteins (Mus musculus, UniProt Q9CXD6).
T2 construct: endogenous in cells; host or cells: MLO-Y4
T2 sequence (Q9CXD6 1-340): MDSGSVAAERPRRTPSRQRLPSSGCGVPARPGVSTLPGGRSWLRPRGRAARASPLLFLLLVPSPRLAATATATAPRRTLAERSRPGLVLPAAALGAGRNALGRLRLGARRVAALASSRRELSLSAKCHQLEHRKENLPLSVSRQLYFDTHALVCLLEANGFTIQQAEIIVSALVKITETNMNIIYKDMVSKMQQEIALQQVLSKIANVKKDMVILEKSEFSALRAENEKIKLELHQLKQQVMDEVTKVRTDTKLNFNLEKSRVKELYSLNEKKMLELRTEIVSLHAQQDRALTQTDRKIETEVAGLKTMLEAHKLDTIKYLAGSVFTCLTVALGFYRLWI
The settings on record: co-precipitated protein Mcur1 (MCUR1_MOUSE). The gist of the method:
as §1

In assay [3] the target is T3, MLO-Y4 cell surface proteins (Mus musculus, UniProt P08249).
T3 construct: endogenous in cells; host or cells: MLO-Y4
T3 sequence (P08249 25-338): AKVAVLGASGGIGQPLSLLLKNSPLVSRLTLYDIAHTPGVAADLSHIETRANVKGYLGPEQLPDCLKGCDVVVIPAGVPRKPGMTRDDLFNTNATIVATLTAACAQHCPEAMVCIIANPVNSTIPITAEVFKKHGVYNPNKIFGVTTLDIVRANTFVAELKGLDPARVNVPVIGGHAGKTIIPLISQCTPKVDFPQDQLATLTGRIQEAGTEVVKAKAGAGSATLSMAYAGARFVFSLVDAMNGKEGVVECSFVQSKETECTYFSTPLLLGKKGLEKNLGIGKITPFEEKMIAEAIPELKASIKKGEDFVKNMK
The settings on record: co-precipitated protein Mdh2 (MDHM_MOUSE). The gist of the method: as §1

Assay [4] concerns the target T4, MLO-Y4 cell surface proteins (Mus musculus, UniProt Q99KR7).
T4 construct: endogenous in cells; host or cells: MLO-Y4
The settings on record: co-precipitated protein Ppif (PPIF_MOUSE). The method in brief:
as §1

In assay [5] the target is T5, MLO-Y4 cell surface proteins (Mus musculus, UniProt P09671).
T5 construct: endogenous in cells; host or cells: MLO-Y4
T5 sequence (P09671 25-222): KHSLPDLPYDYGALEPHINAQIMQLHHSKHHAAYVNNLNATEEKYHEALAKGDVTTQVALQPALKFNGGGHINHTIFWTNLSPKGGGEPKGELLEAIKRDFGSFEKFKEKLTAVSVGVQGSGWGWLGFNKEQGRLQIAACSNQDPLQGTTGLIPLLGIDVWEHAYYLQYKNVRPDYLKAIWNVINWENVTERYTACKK
The settings on record: co-precipitated protein Sod2 (SODM_MOUSE). The gist of the method:
as §1

T1 sequence (Q9Z138 34-944): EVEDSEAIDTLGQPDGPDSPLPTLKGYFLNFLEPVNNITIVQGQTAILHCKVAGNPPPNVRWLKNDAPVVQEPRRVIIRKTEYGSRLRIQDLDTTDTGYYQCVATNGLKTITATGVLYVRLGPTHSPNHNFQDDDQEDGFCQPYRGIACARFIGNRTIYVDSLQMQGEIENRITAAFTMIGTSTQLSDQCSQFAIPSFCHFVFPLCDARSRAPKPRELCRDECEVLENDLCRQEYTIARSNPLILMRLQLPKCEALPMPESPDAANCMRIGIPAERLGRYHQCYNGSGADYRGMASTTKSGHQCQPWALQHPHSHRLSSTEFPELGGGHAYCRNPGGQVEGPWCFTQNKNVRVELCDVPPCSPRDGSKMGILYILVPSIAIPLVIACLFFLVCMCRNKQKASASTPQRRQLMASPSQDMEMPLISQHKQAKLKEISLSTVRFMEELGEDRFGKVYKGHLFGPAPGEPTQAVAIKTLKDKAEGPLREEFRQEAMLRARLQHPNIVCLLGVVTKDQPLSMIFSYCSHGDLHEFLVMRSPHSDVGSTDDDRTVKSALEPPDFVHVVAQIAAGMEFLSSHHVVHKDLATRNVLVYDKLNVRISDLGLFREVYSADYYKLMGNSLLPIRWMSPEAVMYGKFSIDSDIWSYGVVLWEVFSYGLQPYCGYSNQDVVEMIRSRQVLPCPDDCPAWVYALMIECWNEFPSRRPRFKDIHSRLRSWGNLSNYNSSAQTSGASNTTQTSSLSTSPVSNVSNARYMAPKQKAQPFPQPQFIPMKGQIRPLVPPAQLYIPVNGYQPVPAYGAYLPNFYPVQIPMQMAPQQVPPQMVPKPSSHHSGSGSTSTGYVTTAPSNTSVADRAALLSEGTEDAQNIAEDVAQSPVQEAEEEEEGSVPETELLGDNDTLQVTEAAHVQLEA
T4 sequence (Q99KR7 30-206): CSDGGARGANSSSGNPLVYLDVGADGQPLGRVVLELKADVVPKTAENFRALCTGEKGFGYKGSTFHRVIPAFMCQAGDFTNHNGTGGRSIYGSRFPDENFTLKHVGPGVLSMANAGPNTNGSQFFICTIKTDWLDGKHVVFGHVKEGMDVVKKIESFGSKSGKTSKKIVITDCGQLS

On to adipsin, for which the TMT signal-to-noise ratio is on record as 67.6684 in assay [1]; 1631.69 in assay [2]; 2557.03 in assay [3]; 249.839 in assay [4]; 1031.93 in assay [5].
